16 sequences from a protein production outcome set (Wang et al. 2014) can be followed below.

The data set can be described thus: label from the status in PepcDB records.
Consider “MLLKILVKLIILDSSCSFLERFKLIIDCYTNKDIPDIDRQLPIWMLWRIWKSRNLSVYQHKSSTWREDFIKTVNDATEWALVWTIDSTTNIQTRQVQSRTHHSAWTRPKEDFVKCNFDCKFSKNNNVSQAGRSKGQHCSMSMEAELQALVMAMQHVWSKGYKKVIFEGDNLRLSSFLRKIKPTSKFTTGSEKIIIRKKGLAMLNSIGQEEKTTK”, for which the protein production result was “failed”. For “MLLKQRINANVLVQDGDEPSEDPNELIKQVFALTQESNQLICRIHSTNAQAKLEDGKILLSLLSLRDSYAEQHKILIDAIANTHREPDRYSSREIKWKKVIPVSSLQKQADDISAKLRDLNVKIQAANWQIDLINLEHHHHHH” the value was “failed”; for “MLLNEIPWTIPLTVRLSNGLTHTFASVYEALDFLENEWPLRKGERYERAVRTCRRALNRMTPAAVAREAFIAACLEAGMPLVMAPPAREPQGDTVKAAHTA”, “not failed”; for “MLLPRMLEEVVLAVPARDYDRVVAGLAVEGIFHVDSPPQGVKGEVDRSYRALLTQASERSSRIRQYFDLAGVEPYRVSGVEIEVGGWGESWKRYLEKYSGVEKFYSGLLEEYSEAEARLKELLDIEARIAPVAHLDVDIARLYRSGAFDFAVYYGSYSEGLESRVGEIVSRVGGLAAVEASGGSVVVAVAVPKGALSKISPEILRLNLSIYTPPEGVPGSPREAMEYIRGEKARLGRRLVSIQEMASERLGELAEFYTVVTAFENIFKFLVSTLRRGETRIVRGFVDVRDSGRLRSIVDRMTRGSYVLLSLGVRRGGEAPIPSKVDLPQFLKPFSRVVELYGYPEPNEIVPTVFLAITLPLTFALMFPDAGQGLLVLLFSLFYLRRVSRDWAYVIAVMGGASVVSGLLAGEVFGPLVSKMLGLPELWYRLGLETPPYAMPTYAIDHGEEELVPVLVYRALNVSLFMGAFMLSFGTFLGVVNGVIKRDWVGLVESRLPRFLLFASITGPFLVYMDAGEAGSVLRQALLELGGDSIAAKLVLAGSVLGLAWMLLAGPIIYMLEGHSPLAGLANSFLEAYESLLMLVGNIPSFLRIMALALAHSSLMFVIYYLTVMIMQGGILADVVGALLYVGGNLAVAAMEGLLAFAHASRLHFYEWFSKFYSGTGVPYTPIKVEGVRIKIAGQTF”, “failed”. For the sequence “MLLQPSRVRSGGRARWHAVQCAAAVTIGRDHPRHRYTRAMSSPLSCRLGCAACCIAPSISSPIPGMPNGKPAGVACVQLDAQLGCRLFGSPLRPAVCGNLRPSLEMCGTSRKQALSMLAALERATQP”, the protein production result is on record as “failed”.

Regarding “MLLSGWGKFVRWLLVLLSILVIIIGINLILDGVYGFGTFSTTQMYQVAKDPLIGVLIGILATALVQSSTTTTTLTVTAVGTGIVSVPVAIPIILGANIGTTITAMLVAFSYVGERREFKRAFTVAAMHVWFNVLVILVLFVVELLFHPFRTISGAIATEITLTTGGSLPTSGVMTKIFDPPTQLLGMNGLIGSIGNPSISAIVCLVVGTILILISVRAMSSQIRTITAATVTSIMDKVINPENSPKATILSNFWSFILGVLFTLMVTASSVTVASMQPVAASGVVKQKPLLGVILGANVGTTVTAMFATFAIVSDQGEFAIQAALIHLIVNFTGALLVLCIPQLANVIIHLAEKTANLTARSYSITLATIVTAYVLVPSAVLMIYFFI”, the protein production result is “failed”.

As for “MLLYNKQKKNQNAKGNRILISVTVLGSAGPIRFVAYEDDLVASVIDTALKGYAREGRLPLLGSDFNDFLLYCPMVGPEALSTWDAIGSLGARNFMLCRKPEEKKVEESNGRSDSTINGARKGGSLKAWINKSFNLKVSSH”, the protein production result is reported as “failed”. As for “MLMDGHTHTELCPHGSGEATEKMIQRAIQLGFQRYCITEHAPLPPAFRDQYEGTPAGYTEASLRENQVADYLALANGLKTKYAGQIEISVGFEVDFLPEHVAWTRDFLNTYGPRTQESILSVHFMRGLRQHFWCVDMSTDDFAAGFGQWLKTPQRVFEQYYQTVLASVQADLGPYAPQRIGHMSLVRKYQDYFGLTEPLDVHNLQLVDQTLALVKQQRRQLDLNLAGLYKPYCNDFYPGEQILQRAQKLDIPLVYGSDAHDIASVGRGYHLIKKLIEGLEHHHHHH”, the entry is “failed”; as for “MLMHATMAALAVFICFAGNYLTGQSMMERPLVVGLVTGILMGDMKTGVLMGASLEAIFLGNVNIGGVIAAEPVTATTLATTFAIISNVEQKAAMTLAVPIGMLAAFVVMFLKNVFMNIFAPSLDKAAREGNQKMVVTLHYGTWIIYYLIIASISFIGILAGSGPVNLFVESIPQNLMNGLSAAGGLLPAVGFAMLMKLLWDNKLAVFYILGFVLTAYLQLPAVAVAVIGTVICVVSAQRDVEFRDILKRKPAASSAVEGSAKEIEEEDFFA”, “failed”. Turning to “MLMQYRDLAKNIIKIYQKHGRDWTQLRGDFLHEKIWLDRFLGLLPMSAKVLDLGCGSGTPIAKYLIEQGCQLTGVDTSEVMLDMAQQNFPEQIWINADIRQFSTEQTFDGILAWDSFFHLDPENQRQMFAQFSTHAASGGVLMFTSGPSYGEAIGDMFGGPLYHASLDAAEYRTLLAQYGFETIKMIAEDPECTGHTVWLARKK”, the protein production result is “failed”.

In the case of “MLNAKTSFALLMAVCLIATGVTGYLLGGINPELIQAWLKAAGIWAPVTYVAVYVVATILILPSTALNLTGGAIFGPWMGTFWTSVGAIIAAIAAFIFARTVGREIVAQRLAGRWQAIDAEVRQGAVFYMFAIRLMPILPYGLVNFAAGLTSISFKDYLIGTALGTVPGILPFVLLGSSGLKAIRTGEVLPLVGALALIGMLVGGSTWYRRRRSFPTRKKP”, the protein production result is “failed”.

“MLNATAFCLAYAGFAALSLGMDRHYEDVFDRALPRRRRLALRSLEWLGLALSLWASAGAWGWNYGTVEWIGILSLAGLLLIWLLTFWPRAALGAGGACALAAPVLALL”: the protein production entry was “failed”. For the sequence “MLNFTVGPVMSSEEVRAIGAEQVPYFRTTEFSSTMLENEKFMLEYAKAPEGSKAVFMTCSSTGSMEAVVMNCFTKKDKVLVIDGGSFGHRFVQLCEIHEIPYVALKLEHGKKLTKEKLYEYDNQNFTGLLVNVDETSTAVLYDTMMIGEFCKKNNMFFVCDCVSAFLADPFNMNECGADVMITGSQKVLACPPGISVIVLAPRGVERVEKSKVRTMYFDLKDALKNQERGQTPFTPAVGILLQINERLKEIKKHGGADAEVARIASQAADFRAKIKDLPFELVSESPANGVTSVHPTTANAYDIFLKLKDEYGIWICPNGGEMKDTIFRVGHIGALTHEDNTTLVNAFKDLQKRNLL”, the protein production entry was “not failed”.

In the case of “MLNIEIYEEAMCCSTGVCGPEPDETLIKTNQINEYLKQNQIEVQRYNMNNNPNEFIQNKEVIRLIQEKGDEVLPITFIEGNIAKTGAYITQEEADEIITVNQMRNGGCCGGDGCC”, the protein production entry is “not failed”. With “MLNKTASYSEIEMSVVVPKDSKITNIEAVSKLAAPVKNDTSNITDLIEHIKSEKGISITPQKTDSYQDAYNRIKSGDSQAMVLNNAYVSLIELSTPDFKSQIKTIYTYKIKKKINRKNTNHKEGVFNIYISGIDTFGSISTVSRSDVNIIMTVNTNTHKVLLTTTPRDAYVKIPDGGGNQYDKLTHAGLYGVETSMKTLENLYDINLDYYARINFSSFLKLIDLLGGVTVYNDQAFTSKHGNFDFPVGQVTLNSEQALGFVRERYSLQGGDNDRGRNQEKVIAAIINKLASSQSVTKLNSITSQLQTSVQTNMTIDNINDLINNQLSTGQRFTVESQALTGHGSTGELPSYAMPGAQLYMMSIDQSSLSNAKSKIKNTMEELEHHHHHH”, the protein production entry was “not failed”.

For the sequence “MLNKVLTHLDENIEKSLERLFSLLRFQSISTDFAYKDECRKAADWLVEDLKSIGFKASRRDTSGHPMVVGHHPGPSDDCLHVLFYGHYDVQPVDPLNLWEDDPFTPSLKEREGEKVICARGASDDKGQLMTFIEACRAFKKETGQLPVRVTVLFEGEEESGSSSLVPFLKANKDELKADCALVCDTSMWDADTPSVSVALRGILGEEIIITAANRDLHSGYFGGAAANPIRILTKVLAGLHDENNRVTLPGFYDGVEETPPHILQSWNALNCTAENFLGPIGLSLPAGEKGRSVLELVWARPTAEINGISGGYEGEGIKTVIASQASAKVSFRLVHKQDPEKIRQAFRDYVCSLIPADCSVVFKEHGASPAIQLPYDSPFIKATKDALSQEWNNPALLTVMGGSIPIVADFQSILDMETLLVGFALADDRIHSPNEKYNLKSFHKGQRSWARILATLAKTGG”, the protein production result is listed as “not failed”.
